Measurements published in US7488592 (WASHINGTON UNIVERSITY, dated 2009).
Residue numbers refer to the chain shown, from its start.

Tests used:
FLAG-Erf2(C189S)p = target: T1, FLAG-Erf2(C189S)p (yeast (S. cerevisiae), UniProt Q06551 1-359); assay: co-purification on GSH-agarose from yeast extracts, immunoblot (FIG. 6B)
T1 construct: Loss-of-function mutant in the DHHC domain, expressed in yeast
T1 sequence: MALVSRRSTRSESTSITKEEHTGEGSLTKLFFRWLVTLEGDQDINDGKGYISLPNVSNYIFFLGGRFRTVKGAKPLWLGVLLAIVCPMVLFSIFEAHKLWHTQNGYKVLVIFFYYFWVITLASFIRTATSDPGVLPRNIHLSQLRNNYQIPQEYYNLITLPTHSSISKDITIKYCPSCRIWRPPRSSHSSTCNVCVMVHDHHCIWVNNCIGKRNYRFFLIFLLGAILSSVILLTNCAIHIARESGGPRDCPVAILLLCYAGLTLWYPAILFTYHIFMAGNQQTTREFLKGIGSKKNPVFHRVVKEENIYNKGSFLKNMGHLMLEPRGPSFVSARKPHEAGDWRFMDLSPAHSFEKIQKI
Method: (§1) Expression of FLAG-Erf2p was determined by affinity purification on anti-FLAG antibody linked to agarose beads followed by an anti-FLAG immunoblot (bottom panel). (FIG. 6C) The Ras PAT activity of partially purified extracts of ERF2 and ERF4 wild type and mutant strains was assayed as described in Example 1.
(§2) Purification of Erf2p/Erf4p Complex—RJY543 yeast cells expressing GST-Erf4p along with FLAG-Erf2p or FLAG-Erf2p mutants (Erf2(H201A)_p, Erf2(C189S)p, Erf2(C203S) p) were solubilized in Y-PER® reagent as described above. *E. coli* cells expressing GST-Erf4p along with FLAG-Erf2p or FLAG-Erf2p mutants (Erf2(H201A)p, Erf2(C203S)p) were lysed by high pressure (25,000 p.s.i.) homogenization (Avestin) in 50 mM Tris-HCl, pH 7.4, 150 mM NaCl, 1 mM DTT, 1 mM EDTA, and 0.13 mM phenylmethylsulfonyl fluoride (Buffer A). […]
(§3) Immunoblotting—Proteins bound to the GSH-agarose beads were analyzed for the presence of both GST and FLAG peptide fusion proteins. GST fusion proteins were detected by immunoblotting with rabbit anti-GST (Molecular Probes) antibody and peroxidase-conjugated goat anti-rabbit secondary antibody (Sigma). FLAG-tagged proteins were detected on Western blots by probing with anti-FLAG® M5 monoclonal antibody (Sigma) and peroxidase-conjugated sheep anti-mouse secondary antibody (Amersham Biosciences).

FLAG-Erf2p = target: T2, FLAG-Erf2p (yeast (S. cerevisiae), UniProt Q06551 1-359); assay: co-purification on GSH-agarose from yeast extracts, anti-FLAG immunoblot
T2 construct: Expressed in yeast RJY543 (pESC) or in E. coli XL1 Blue (pFLAG-MAC operon fusion); also called FLAG-tagged Erf2p; yeast Erf2
T2 sequence: T1 sequence with S189C
Method: as §1, §2, §3

B1: GST-Erf4p (other)
chain: MCDSHQKEEDNANTSERALFFNYHEFSYSFYEDLGSEDAKPTEHDEDHKLCITHFPNVYAARGSAEFQVTRVVRVPRRFDESRSSLETPQFSTQLPGSEPAAIVGDDGTSFVRCGRYDIGDHVFGCSSVSPLSEYLSAAELAEVVHRVNGFLLREEGEVFGWRNLSGLLLDMLTGGLWSWVLGPLLSRPVFQESLALEQYVAQLNSPGGLLHERGVRLVLPRRSGCLSLDFVVPRPK
notes: also called yeast Erf4; YOL110W; not shown: glutathione S-transferase (GST) moiety fused in frame to the N-terminus; vector pEG(KG) in yeast, pFLAG-MAC operon fusio
- binding result (FLAG-Erf2(C189S)p): no binding
- binding result (FLAG-Erf2p): binds
